One data set deals with T1, Ss-RmlD (Saccharothrix syringae, UniProt A0A5Q0HAF2).
T1 construct: gene rfbD
T1 sequence (A0A5Q0HAF2 1-297): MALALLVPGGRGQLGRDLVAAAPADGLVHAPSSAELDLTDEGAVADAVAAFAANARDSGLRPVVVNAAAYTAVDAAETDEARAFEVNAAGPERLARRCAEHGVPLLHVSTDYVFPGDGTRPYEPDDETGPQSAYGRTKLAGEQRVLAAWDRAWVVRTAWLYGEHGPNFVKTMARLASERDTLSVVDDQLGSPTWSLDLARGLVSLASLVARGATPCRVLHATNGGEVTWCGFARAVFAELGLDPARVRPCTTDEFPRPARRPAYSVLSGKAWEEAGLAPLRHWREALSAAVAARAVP
The data set can be described thus: one-pot reaction with Ss-RmlABC; product yield by HPLC. It is filed as biochemical. Particulars: pH 8.5, 30 °C; dTDP-4-keto-rhamnose made in situ.

Substrate in data set [1]: O=P(O)(O)O[C@H]1O[C@H](CO)[C@@H](O)[C@H](O)[C@H]1O
The data set can be described thus: malachite green PPi release assay with inorganic pyrophosphatase. It is filed as biochemical, Saccharothrix syringae. Particulars: 1 mM dTTP, optimal conditions (37 °C, pH 9.0, 2.5 mM Mg2+).

Substrate in data set [2]: Cc1cn([C@H]2C[C@H](O)[C@@H](COP(=O)(O)OP(=O)(O)OP(=O)(O)O)O2)c(=O)[nH]c1=O
The description is as above. It counts as biochemical, Saccharothrix syringae. Particulars: 1 mM Glc-1-P, optimal conditions (37 °C, pH 9.0, 2.5 mM Mg2+).

Substrate in the data set “purified protein”: Cc1cn([C@H]2C[C@H](O)[C@@H](COP(=O)(O)OP(=O)(O)O[C@H]3O[C@H](CO)[C@@H](O)[C@H](O)[C@H]3O)O2)c(=O)[nH]c1=O
The data set can be described thus: purified protein. It is filed as biochemical, Saccharothrix syringae. Particulars: optimal conditions (50 °C, pH 7.5, 0.02 mM NAD+).

Regarding `NC(=O)C1=CN([C@@H]2O[C@H](COP(=O)(O)OP(=O)(O)OC[C@H]3O[C@@H](n4cnc5c(N)ncnc54)[C@H](OP(=O)(O)O)[C@@H]3O)[C@@H](O)[C@H]2O)C=CC1` [NADPH], the “one-pot reaction with Ss-RmlABC; product yield by HPLC” value on Ss-RmlD is recorded as “NADPH was an essential cofactor for the final step of reduction catalyzed by Ss-RmlD”.

B1: Ss-RmlA (Saccharothrix syringae) (protein)
chain: MKGIILAGGSGTRLHPITQAVSKQLLPVYDKPMVYYPLSVLMLAGIREILLISTPTDLPLFRRLLGDGSQFGLSVSYAEQAQPNGLAEAFVIGADFVGDDDVSLVLGDNIFYGQGFSRLLQHHAATLDGCVLFGYPVKDPERYGVGEVDATGRLVSIEEKPAAPKSNKAITGLYFYDNQVVDIARNLRPSARGELEITDVNLTYLRQGRAHLVDLGRGFAWLDTGTHDSLLEAGQFVQVLEHRQGVRIACPEEIALRMGFITADECYALGEKLAKSGYGQYVMYVAREVR
A word on the Km: it is the concentration of substrate that gives half-maximal velocity. A word on the kcat: it is the number of substrate molecules converted per active site and unit of time at saturation. As to B1, the Michaelis-Menten constant (Km) in data set [1] came to 117.30 µM; in data set [2] it was 49.56 µM. Also, the kcat in data set [1] is 3.46 s⁻¹; in data set [2], 5.39 s⁻¹.

B2: Ss-RmlB (Saccharothrix syringae) (protein)
chain: MRVLVTGGAGFIGSHYVRELVGGSYPAYADAEVVVLDKLTYAGNEANLAPVADSPRLTFVRGDICDRELVVGVMRGVDVVVHFAAESHVDRSITGSADFVLTNVLGTQVLLQAALEAGVAKFVHVSTDEVYGSIAEGSWTEDHVLEPNSPYSASKASSDLLARAFHRTHGLPVCVTRCSNNYGPYQFPEKVIPLFVTNLVDGRKVPLYGDGLNVRDWLHVDDHCRGIQLVLEGGRGGEIYNIGGGTELTNRELTARLLEATGRDWDSFVEPVEDRKGHDRRYSVDITKISTELGYAPRVDFAEGLAATVRWYRENRAWWEPLKQRAALTG
Take B2: in “purified protein”, the Km turned out to be 98.60 µM and the kcat is 11.2 s⁻¹.

Source of the values: article PMC8606822, “Novel dTDP-L-Rhamnose Synthetic Enzymes (RmlABCD) From Saccharothrix syringae CGMCC 4.1716 for One-Pot Four-Enzyme Synthesis of dTDP-L-Rhamnose” (Frontiers in Microbiology, 2021).
